Measured values taken from patent US20050118183A1 (IMMUNOGEN, published 2005).
Values belong to the molecule of their own block, whether it stands above or below them.

Key:
[1] = target: CD33 (human) (UniProt P20138); assay: direct binding on HL-60 membranes; direct on membranes
[2] = target: CD33 (human) (UniProt P20138); assay: competitive binding on HL-60 membranes; competitive on membranes
[3] = target: CD33 (human) (UniProt P20138); assay: direct binding on HL-60 whole cells; direct on cells
[4] = target: T1, CD33 (human, UniProt P20138 18-364); assay: flow cytometry on HL-60 cells
T1 construct: whole, on cells; Presented on U-937 cells, HL-60 whole cells, dried HL-60 plasma membranes, THP-1 cells and CD33-transfected 3T3 murine fibroblasts; also called CD33 antigen; human CD33
Description: HL-60 cells were incubated with various concentrations of either My9-6 antibody or My9-6-DM1. The cells were then washed and incubated with a secondary FITC-labeled anti-murine IgG antibody. Following an additional wash, cells were fixed with 2% formaldehyde and cell-associated fluorescence was quantified using a BD FACScan flow cytometer.

Chain of CD33 (human) (P20138 18-364): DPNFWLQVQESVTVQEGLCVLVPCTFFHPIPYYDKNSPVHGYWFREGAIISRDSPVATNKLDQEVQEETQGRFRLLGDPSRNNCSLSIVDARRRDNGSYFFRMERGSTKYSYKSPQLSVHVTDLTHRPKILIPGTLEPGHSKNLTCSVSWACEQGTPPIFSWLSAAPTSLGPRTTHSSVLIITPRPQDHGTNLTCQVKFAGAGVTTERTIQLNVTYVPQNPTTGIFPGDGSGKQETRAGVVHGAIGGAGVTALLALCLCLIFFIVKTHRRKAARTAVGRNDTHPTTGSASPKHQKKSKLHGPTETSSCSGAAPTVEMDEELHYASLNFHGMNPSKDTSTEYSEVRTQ
T1 sequence (P20138 18-364): as above

Kd [1]: 0.0513 nM | Kd [2]: 0.174 nM | Kd [3]: 1.1 nM
Molecule: murine My9-6 antibody

binding result [4]: binds
B1: My9-6-DM1 immunoconjugate (antibody, IgG1, V domains shown)
VH: QVQLQQPGAEVVKPGASVKMSCKASGYTFTSYYIHWIKQTPGQGLEWVGVIYPGNDDISYNQKFKGKATLTADKSSTTAYMQLSSLTSEDSAVYYCAREVRLRYFDVWGAGTTVTVSS
VL: NIMLTQSPSSLAVSAGEKVTMSCKSSQSVFFSSSQKNYLAWYQQIPGQSPKLLIYWASTRESGVPDRFTGSGSGTDFTLTISSVQSEDLAIYYCHQYLSSRTFGGGTKLEIKR
modifications: DM1 (thiol-containing maytansinoid) linked by disulfide through SPP; 3-5 pyridyldithio groups introduced per molecule of antibody; residues and chain not stated
